# Patent publication US20110230374A1 (UNIVERSITY OF MARYLAND BALTIMORE, published 2011)
# Changes are numbered by the printed parent chain.
# B1: VLRB.CTMut.5 (other)
# chain: ACPSQCSCDQTTVYCHNRRLTSVPTGIPTTTQVLYLYDNQITKLEPGVFDRLTKLTHLSLGYNQLKSVPRGAFDNLKSLTHIWLLNNPWDCQCTDILYLKNWIVQHASIVNPHTHGGVDNVKCSGTNTPVRAVTEASTSPSKC
# B2: VLRB.HEL.2D (other)
# chain: ACPSQCSCSGTTVDCSGKSLASVPTGIPTTTQVLYLYDNQITKLEPGVFDRLTQLTRLDLDNNQLTVLPAGVFDKLTQLTQLSLNDNQLKSIPRGAFDNLKSLTHIWLLNNPWDCACSDILYLSRWISQHPGLVFGYLNLDPDSARCSGTNTPVRAVTEASTSPSKCP
# notes: also called VLRB.2D; wild-type VLRB.2D
# B3: VLRB.2DMut.12 (other)
# chain: B2 chain with G132W, P142H
# B4: VLRB.2DMut.13 (other)
# chain: B2 chain with Q40R, K101R, G132W, P142H, E159K
# B5: VLRB.2DMut.15 (other)
# chain: B2 chain with T29I, D86V, D141Y
# How the values were obtained:
# hen egg lysozyme [1] = target: T1, hen egg lysozyme (hen, UniProt P00698 19-147); test: SPR, Table 1
# T1 construct: Soluble monovalent antigen; Biotinylated for YSD titration; unlabelled analyte in SPR and titrant in ITC; also called HEL
# hen egg lysozyme [2] = target: T1, hen egg lysozyme; test: SPR (BIAcore T100), biotinylated yeast-secreted VLR on NeutrAvidin, HEL as analyte (7.66-0.00299 nM)
# hen egg lysozyme [3] = target: T1, hen egg lysozyme; test: YSD antigen titration, flow cytometry, biotin-HEL and SAPE
# hen egg lysozyme [4] = target: T1, hen egg lysozyme; test: ITC at 25 C, VLR refolded from E. coli inclusion bodies, HEL injected
# hen egg lysozyme [5] = target: T1, hen egg lysozyme; test: SPR (BIAcore T100), biotinylated yeast-secreted VLR on NeutrAvidin, antigen as analyte
# hen egg lysozyme [6] = target: T1, hen egg lysozyme; test: SPR, steady-state analysis, VLRB.2D (117.0-10.9 µM) over immobilized HEL (FIG. 3A); SPR of FIG. 3A; clone found by phage display
# hen egg lysozyme [7] = target: T1, hen egg lysozyme; test: SPR, VLR over immobilized HEL
# hen egg lysozyme [8] = target: T1, hen egg lysozyme; test: SPR, steady-state analysis, 2DMut.12 (30.8-1.0 µM) over immobilized HEL (FIG. 3B)
# T1 sequence (P00698 19-147): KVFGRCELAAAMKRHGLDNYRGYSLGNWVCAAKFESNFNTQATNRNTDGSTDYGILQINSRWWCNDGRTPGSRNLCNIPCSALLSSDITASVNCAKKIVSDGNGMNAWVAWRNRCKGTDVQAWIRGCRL
Binder,fold improvement of affinity over VLRB.HEL.1 (hen egg lysozyme [1]) [fold],Kd (hen egg lysozyme [2]) [nM],Kd (hen egg lysozyme [3]) [nM],Kd (hen egg lysozyme [4]) [nM],Kd (hen egg lysozyme [5]) [nM],Kd (hen egg lysozyme [6]) [nM],fold improvement of affinity over wild-type VLRB.HEL.2D (hen egg lysozyme [1]) [fold],fold improvement of affinity over wild-type VLRB.2D (hen egg lysozyme [7]) [fold],Kd (hen egg lysozyme [8]) [nM]
B1,1300,0.119,,,,,,,
B2,,,659,427,455,20000,,,
B3,,,6.9,28,4.3,,100,13,1500
B4,,,,34,55.1,,,,
B5,,,,8,20.2,,,,
